# Source: US20240052048A1 (SUZHOU QIN PHARMACEUTICALS, published 2024)
# Like-named read-outs stand apart in the source and are kept apart here.
# T1: human-APRIL-Fc (human, UniProt O75888 115-250, limits assumed)
# T1 construct: Bought from ACRO Biosystems, APL-H5267; also called human APRIL protein; ACRO Biosystems APL-H5267; not shown: Fc tag
# T1 sequence (looked up): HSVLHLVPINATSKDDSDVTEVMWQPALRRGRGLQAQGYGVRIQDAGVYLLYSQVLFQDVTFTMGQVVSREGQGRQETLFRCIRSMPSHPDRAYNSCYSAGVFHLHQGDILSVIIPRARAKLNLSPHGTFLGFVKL
# T2: Biotin-labeled human BCMA (human, UniProt Q02223 1-54, limits assumed, Biotin-labeled (site not stated))
# T2 sequence (looked up): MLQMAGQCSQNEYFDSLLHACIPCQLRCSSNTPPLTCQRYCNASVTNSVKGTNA
# T3: human-BCMA-Fc (human, UniProt Q02223 1-54)
# T3 construct: Bought from ACRO Biosystems, catalog BC7-H5254; also called ACRO Biosystems BC7-H5254; not shown: Fc tag
# T3 sequence (looked up): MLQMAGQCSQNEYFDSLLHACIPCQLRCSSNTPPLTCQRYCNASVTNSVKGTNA
# T4: human BCMA on BCMA-HEK293 cells (human, UniProt Q02223 1-184)
# T4 construct: whole, on cells; also called human BCMA-HEK293 cells; HEK293 cells overexpressing human BCMA
# T4 sequence (looked up): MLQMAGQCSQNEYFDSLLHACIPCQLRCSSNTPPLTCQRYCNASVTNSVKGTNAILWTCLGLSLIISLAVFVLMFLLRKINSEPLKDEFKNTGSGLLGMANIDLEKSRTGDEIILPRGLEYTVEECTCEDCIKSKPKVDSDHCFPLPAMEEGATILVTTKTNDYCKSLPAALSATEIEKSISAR
# T5: human-BCMA-His (human, UniProt Q02223 1-54)
# T5 construct: Bought from ACRO Biosystems, catalog BCA-H522y; also called ACRO Biosystems BCA-H522y; not shown: His tag
# T5 sequence (looked up): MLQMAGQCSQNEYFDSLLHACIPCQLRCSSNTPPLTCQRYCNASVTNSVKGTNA
# T6: human BCMA on H929 cells (human, UniProt Q02223 1-184)
# T6 construct: whole, on cells; also called human myeloma cell line H929 cells expressing BCMA
# T6 sequence (looked up): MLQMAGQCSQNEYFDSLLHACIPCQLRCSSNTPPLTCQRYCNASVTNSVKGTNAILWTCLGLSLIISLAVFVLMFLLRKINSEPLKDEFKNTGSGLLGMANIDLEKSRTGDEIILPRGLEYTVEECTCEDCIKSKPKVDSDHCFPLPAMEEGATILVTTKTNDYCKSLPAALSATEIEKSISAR
# B1: human BCMA (recombinant antigen, tag not stated for the assay) (receptor, UniProt Q02223 1-54, looked up)
# chain: MLQMAGQCSQNEYFDSLLHACIPCQLRCSSNTPPLTCQRYCNASVTNSVKGTNA
# notes: The ELISA and screening sections say only 'human BCMA'; also called human BCMA antigen
# Legend:
# [1] = biological target: T1, human-APRIL-Fc; assay: ELISA (OD450), plate coated with APRIL 8 µg/ml, human BCMA titrated up to 10 µg/mL; EC50 table in the figure
# [2] = biological target: T1, human-APRIL-Fc; assay: ELISA (OD450), plate coated with APRIL 4 µg/ml, human BCMA titrated up to 10 µg/mL; EC50 table in the figure
# [3] = biological target: T1, human-APRIL-Fc; assay: ELISA (OD450), plate coated with APRIL 1 µg/ml, human BCMA titrated up to 10 µg/mL; EC50 table in the figure
# [4] = biological target: T1, human-APRIL-Fc; assay: ELISA (OD450), plate coated with APRIL 2 µg/ml, human BCMA titrated up to 10 µg/mL; EC50 table in the figure
# [5] = biological target: T2, Biotin-labeled human BCMA; assay: blocking ELISA (OD450): human BAFF coated, antibody premixed with Biotin-labeled human BCMA; blocked ligand BAFF; IC50 table in the figure
# [6] = biological target: T3, human-BCMA-Fc; assay: BLI (Octet RED96), antibody on FAB2G sensor, human BCMA-Fc at 200, 50, 12.5 nM
# [7] = biological target: B1; assay: ELISA (OD450) on coated human BCMA; EC50 table in the figure
# [8] = biological target: T4, human BCMA on BCMA-HEK293 cells; assay: flow cytometry (MFI) on HEK293 cells expressing human BCMA; EC50 table in the figure
# [9] = biological target: T2, Biotin-labeled human BCMA; assay: blocking ELISA (OD450): human BAFF coated, antibody premixed with Biotin-labeled human BCMA; blocked ligand BAFF; IC50 table in the figure; remark: listed apart in the source
# [10] = biological target: T7, monkey BCMA on BCMA-CHO cells (cynomolgus monkey, UniProt A0A2K5UD97 1-183); assay: flow cytometry (MFI) on CHO cells expressing monkey BCMA; EC50 table in the figure; curve still rising at 10 µg/mL
# T7 construct: whole, on cells; also called monkey BCMA-CHO cells; CHO cells overexpressing monkey BCMA
# [11] = biological target: B1; assay: ELISA (OD450) on coated human BCMA; EC50 table in the figure; remark: listed apart in the source
# [12] = biological target: T2, Biotin-labeled human BCMA; assay: blocking ELISA (OD450): human APRIL coated, antibody premixed with Biotin-labeled human BCMA; blocked ligand APRIL; IC50 table in the figure
# [13] = biological target: B1; assay: ELISA (OD450) on coated human BCMA; EC50 table in the figure; remark: listed apart in the source
# [14] = biological target: T3, human-BCMA-Fc; assay: ELISA (OD450), GSK2857916 titrated up to 10 µg/mL on Human BCMA-Fc; EC50 table in the figure
# [15] = biological target: T5, human-BCMA-His; assay: ELISA (OD450), GSK2857916 titrated up to 10 µg/mL on Human BCMA-His; EC50 table in the figure
# [16] = biological target: T8, monkey BCMA (recombinant antigen, tag not stated for the assay) (monkey, UniProt A0A2K5UD97 1-53); assay: ELISA (OD450) on coated monkey BCMA; EC50 table in the figure
# T8 construct: The ELISA, screening and BLI sections say only 'monkey BCMA' or 'monkey BCMA protein'; also called monkey BCMA protein; monkey BCMA antigen; not shown: The carrier tag (human IgG1 Fc or His tag) of the bought ACRO antigen
# [17] = biological target: T2, Biotin-labeled human BCMA; assay: blocking ELISA (OD450): human APRIL coated, antibody premixed with Biotin-labeled human BCMA; blocked ligand APRIL; IC50 table in the figure; remark: listed apart in the source
# [18] = biological target: T6, human BCMA on H929 cells; assay: flow cytometry (MFI) on myeloma cell line H929 expressing BCMA; EC50 table in the figure; curve still rising at about 60 µg/mL
# [19] = biological target: T2, Biotin-labeled human BCMA; assay: blocking ELISA (OD450): human BAFF coated, antibody premixed with Biotin-labeled human BCMA; blocked ligand BAFF; IC50 table in the figure; remark: listed apart in the source
# [20] = biological target: T2, Biotin-labeled human BCMA; assay: blocking ELISA (OD450): human APRIL coated, antibody premixed with Biotin-labeled human BCMA; blocked ligand APRIL; IC50 table in the figure; remark: listed apart in the source
# [21] = biological target: T7, monkey BCMA on BCMA-CHO cells; assay: flow cytometry (MFI) on CHO cells expressing monkey BCMA; EC50 table in the figure
# [22] = biological target: T8, monkey BCMA (recombinant antigen, tag …); assay: ELISA (OD450) on coated monkey BCMA; EC50 table in the figure; remark: listed apart in the source
# [23] = biological target: T4, human BCMA on BCMA-HEK293 cells; assay: flow cytometry (MFI) on HEK293 cells expressing human BCMA; EC50 table in the figure; remark: listed apart in the source
# [24] = biological target: T8, monkey BCMA (recombinant antigen, tag …); assay: ELISA (OD450) on coated monkey BCMA; EC50 table in the figure; remark: listed apart in the source
# [25] = biological target: T8, monkey BCMA (recombinant antigen, tag …); assay: BLI (Octet RED96), antibody on FAB2G sensor, monkey BCMA protein at 200, 50, 12.5 nM
# T8 sequence (A0A2K5UD97 entry or part of it limits assumed): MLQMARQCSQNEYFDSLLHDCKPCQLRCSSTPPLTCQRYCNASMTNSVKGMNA
# T7 sequence (A0A2K5UD97 entry or part of it): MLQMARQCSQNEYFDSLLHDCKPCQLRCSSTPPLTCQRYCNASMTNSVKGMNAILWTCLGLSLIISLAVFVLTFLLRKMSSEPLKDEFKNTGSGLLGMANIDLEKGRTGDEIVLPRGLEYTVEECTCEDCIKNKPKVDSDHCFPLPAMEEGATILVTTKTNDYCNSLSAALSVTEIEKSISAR
binder,measurement,setting,value
B1,EC50,[1],2.05 µg/mL
same,EC50,[2],1.57 µg/mL
same,EC50,[3],1.07 µg/mL
same,EC50,[4],1.28 µg/mL
"GSK2857916 (positive control antibody, not coupled to the toxin molecule) (antibody, V domains shown, also called Belantamab mafodotin antibody; positive antibody) VH: QVQLVQSGAEVKKPGSSVKVSCKASGGTFSNYWMHWVRQAPGQGLEWMGATYRGHSDTYYNQKFKGRVTITADKSTSTAYMELSSLRSEDTAVYYCARGAIYDGYDVLDNWGQGTLVTVSS VL: DIQMTQSPSSLSASVGDRVTITCSASQDISNYLNWYQQKPGKAPKLLIYYTSNLHSGVPSRFSGSGSGTDFTLTISSLQPEDFATYYCQQYRKLPWTFGQGTKLEIK",IC50,[5],1.37 µg/mL
same,Kd,[6],0.0539 nM
same,koff,[6],1.19e-05 s⁻¹
same,kon,[6],220000 M⁻¹ s⁻¹
same,EC50,[7],0.772 µg/mL
same,EC50,[8],1.09 µg/mL
same,IC50,[9],1.41 µg/mL
same,EC50,[10],7.22 µg/mL
same,EC50,[11],0.642 µg/mL
same,IC50,[12],1.51 µg/mL
same,EC50,[13],0.514 µg/mL
same,EC50,[14],0.304 µg/mL
same,EC50,[15],0.77 µg/mL
same,EC50,[16],0.749 µg/mL
same,IC50,[17],1.6 µg/mL
same,EC50,[18],6.8 µg/mL
same,IC50,[19],1.36 µg/mL
same,IC50,[20],1.79 µg/mL
same,EC50,[21],2.88 µg/mL
same,EC50,[22],0.341 µg/mL
same,EC50,[23],0.293 µg/mL
same,EC50,[24],0.862 µg/mL
same,Kd,[25],0.352 nM
same,koff,[25],0.000111 s⁻¹
same,kon,[25],317000 M⁻¹ s⁻¹
